This is an account of results in paper PMC4637903.

In one test the target is wild-type β4 integrin (co-immunoprecipitations from transfected cells) (UniProt P16144). The test is described as follows: co-immunoprecipitation (IP: β4) and Western blot, densitometry. To be noted: parent: 1.0. (Immunoblotting shows a protein as a band on a membrane.)
Chain of UniProt P16144 (P16144 28-1822): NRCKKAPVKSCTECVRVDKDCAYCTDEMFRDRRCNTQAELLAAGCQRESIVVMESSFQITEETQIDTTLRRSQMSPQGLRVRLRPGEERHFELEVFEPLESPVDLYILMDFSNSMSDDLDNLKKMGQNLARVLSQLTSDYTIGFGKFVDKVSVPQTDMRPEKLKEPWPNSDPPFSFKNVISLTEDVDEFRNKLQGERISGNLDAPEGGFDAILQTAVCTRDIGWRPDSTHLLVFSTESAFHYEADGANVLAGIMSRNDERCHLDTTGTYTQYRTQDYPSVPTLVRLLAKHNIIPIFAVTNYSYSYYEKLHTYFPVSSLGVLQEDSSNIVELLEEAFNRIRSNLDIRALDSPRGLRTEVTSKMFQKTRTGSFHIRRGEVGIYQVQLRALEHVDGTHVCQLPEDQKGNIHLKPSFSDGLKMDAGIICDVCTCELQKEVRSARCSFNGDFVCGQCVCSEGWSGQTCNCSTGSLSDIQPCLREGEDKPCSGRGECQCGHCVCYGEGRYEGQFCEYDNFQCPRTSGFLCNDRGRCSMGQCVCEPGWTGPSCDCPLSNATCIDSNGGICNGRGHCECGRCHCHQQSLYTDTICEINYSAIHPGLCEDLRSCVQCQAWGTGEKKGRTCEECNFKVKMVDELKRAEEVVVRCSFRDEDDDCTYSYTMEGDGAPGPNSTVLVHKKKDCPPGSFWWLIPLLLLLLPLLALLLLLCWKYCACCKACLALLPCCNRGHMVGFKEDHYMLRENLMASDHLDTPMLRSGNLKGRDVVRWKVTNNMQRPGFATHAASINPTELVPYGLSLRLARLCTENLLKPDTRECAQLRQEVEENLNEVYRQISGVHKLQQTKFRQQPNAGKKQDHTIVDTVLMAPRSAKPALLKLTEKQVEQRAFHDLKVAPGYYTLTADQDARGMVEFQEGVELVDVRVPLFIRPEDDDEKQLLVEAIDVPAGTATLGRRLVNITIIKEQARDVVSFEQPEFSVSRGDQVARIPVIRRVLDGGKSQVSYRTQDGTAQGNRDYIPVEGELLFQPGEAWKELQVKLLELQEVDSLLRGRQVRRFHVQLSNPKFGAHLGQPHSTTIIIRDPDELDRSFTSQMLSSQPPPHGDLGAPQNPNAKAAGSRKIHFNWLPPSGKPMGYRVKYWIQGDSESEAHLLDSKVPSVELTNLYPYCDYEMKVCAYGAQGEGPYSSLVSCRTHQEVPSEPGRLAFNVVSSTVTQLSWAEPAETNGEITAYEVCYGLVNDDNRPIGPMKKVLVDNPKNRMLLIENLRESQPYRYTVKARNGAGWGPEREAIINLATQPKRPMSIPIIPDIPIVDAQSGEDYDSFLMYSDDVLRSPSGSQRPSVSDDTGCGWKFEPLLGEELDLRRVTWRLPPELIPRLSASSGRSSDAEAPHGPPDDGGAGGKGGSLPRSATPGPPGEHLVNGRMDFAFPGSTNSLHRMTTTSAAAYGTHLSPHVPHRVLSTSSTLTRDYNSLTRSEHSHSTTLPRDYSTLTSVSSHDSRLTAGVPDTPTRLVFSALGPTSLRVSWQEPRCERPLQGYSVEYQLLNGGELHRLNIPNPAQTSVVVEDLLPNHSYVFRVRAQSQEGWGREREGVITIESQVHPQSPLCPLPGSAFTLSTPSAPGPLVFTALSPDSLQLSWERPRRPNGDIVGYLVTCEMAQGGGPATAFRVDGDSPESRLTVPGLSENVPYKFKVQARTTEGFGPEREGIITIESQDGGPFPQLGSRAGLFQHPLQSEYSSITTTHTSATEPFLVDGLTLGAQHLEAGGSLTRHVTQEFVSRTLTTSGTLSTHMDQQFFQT
Turning to “wild-type FAK (co-immunoprecipitations from transfected cells) E380A; K381A; Q382A”, the ratio to parent was determined as 0.2.
Regarding “wild-type FAK (co-immunoprecipitations from transfected cells) R385A; S386A”, the ratio to parent came to 0.7.

The target of another test is wild-type FAK (co-immunoprecipitations from transfected cells). The test is described as follows: co-immunoprecipitation (IP: Myc (β4)) and Western blot, densitometry. To be noted: parent: 1.0.
In the case of “wild-type β4 integrin (co-immunoprecipitations from transfected cells) (from UniProt P16144) Y1422F”, the ratio to parent came out at 1.1.
As for “wild-type β4 integrin (co-immunoprecipitations from transfected cells) (from UniProt P16144) Y1440F”, the ratio to parent worked out at 1.4.
For “wild-type β4 integrin (co-immunoprecipitations from transfected cells) (from UniProt P16144) Y1494F”, the ratio to parent was 1.1.
As for “wild-type β4 integrin (co-immunoprecipitations from transfected cells) (from UniProt P16144) Y1526F”, the ratio to parent is 0.5.
Turning to “wild-type β4 integrin (co-immunoprecipitations from transfected cells) (from UniProt P16144) Y1642F”, the ratio to parent amounted to 0.3.

The target in a further test is wild-type β4 integrin (co-immunoprecipitations from transfected cells) (UniProt P16144). The description is as above. To be noted: parent: 1.0.
“wild-type FAK (co-immunoprecipitations from transfected cells) E380A”: the ratio to parent turned out to be 0.3.
Consider “wild-type FAK (co-immunoprecipitations from transfected cells) G383A”, for which the ratio to parent is 1.2.
In the case of “wild-type FAK (co-immunoprecipitations from transfected cells) K381A”, the ratio to parent worked out at 0.3.
The same measure, in the same setting: to “wild-type FAK (co-immunoprecipitations from transfected cells) N379A” belongs 1.4; to “wild-type FAK (co-immunoprecipitations from transfected cells) Q382A”, 0.3.
In the case of “wild-type FAK (co-immunoprecipitations from transfected cells) R385A”, the ratio to parent is 0.5.
Still for that read-out and setting: to “wild-type FAK (co-immunoprecipitations from transfected cells) S386A” belongs 1.2.
